The text below walks through data of patent publication US20110129457A1.

In assay [1] the target is fully lipid-modified Shh secreted by human HT29 cells (human) (UniProt Q15465). Description: cell-based or functional assay.
The target of assay [2] is Shh649 (ShhC-Cys conjugated with DyLight 649 Maleimide) (human) (UniProt Q15465). The experiment in a line: FACS competition: 1 nM Shh649 preincubated with 5E1, then bound to Ptch1-expressing 293 cells; the blocked partner is Ptch1.
The target in assay [3] is biotinylated-ShhN-Cys (human Shh residues 24-197, N-terminal His6-tag, biotin conjugated) (human) (UniProt Q15465). The experiment in a line: competition ELISA: 5E1 against immobilized Hhip1β12 for biotinylated ShhN-Cys. On the technique in general: ELISA stands for enzyme-linked immunosorbent assay.
Assay [4] addresses Shh (human Sonic hedgehog residues 25-197, N-terminal His6-tag) (human) (UniProt Q15465). Description: SPR (BIAcore-2000), 5E1 IgG immobilized on CM5, Hh injected, 1:1 Langmuir fit.
Assay [5] has as its target Human Ihh (residues 29-202), N-terminal His6-tag (human) (UniProt Q14623). The description is as above.

pIC50, pKd: −log10 of the molar value.

Sequence of Human Ihh (residues 29-202), N-terminal His6-tag (human) (Q14623 other isoform, or with tags, fused parts or gaps limits assumed): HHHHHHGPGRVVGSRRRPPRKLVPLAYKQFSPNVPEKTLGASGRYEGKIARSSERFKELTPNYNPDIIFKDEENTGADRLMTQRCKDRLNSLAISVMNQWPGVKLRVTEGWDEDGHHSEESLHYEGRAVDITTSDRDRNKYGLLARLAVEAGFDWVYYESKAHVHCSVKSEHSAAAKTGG

Consider “Hhip1ECD (Hhip1 extracellular domain, residues 20-667), N-terminally His6-tagged (from UniProt Q96QV1 20-667) (receptor)”, for which the IC50, inhibition of Gli-luciferase activity in HT29/S12 co-culture in assay [1] turned out to be 5.3 nM.
As to anti-Shh monoclonal antibody 5E1, the IC50 (read off the curve) in assay [2] came out at 0.5 nM. The pIC50 (in general, the negative decadic logarithm of the IC50, by convention in mol/L) in assay [3] was 7.64. Besides, the negative-log Kd (pKd) in assay [4] and in assay [5] was 8.52 each time.
